Laboratory results published in patent US20220033520A1.
Changes are numbered by the printed parent chain. In names and notes the source's numbering stands.

B1: anti-BACE1 hIgG4 antibody, Fc modification T1-IgG4 (M252Y/T307Q/N434Y) (antibody, part only; not given: anti-BACE1 variable domains, not shown: another chain or arm of the molecule)
Fc: PAPEFLGGPSVFLFPPKPKDTLYISRTPEVTCVVVDVSQEDPEVQFNWYVDGVEVHNAKTKPREEQFNSTYRVVSVLQVLHQDWLNGKEYKCKVSNKGLPSSIEKTISKAKGQPREPQVYTLPPSQEEMTKNQVSLTCLVKGFYPSDIAVEWESNGQPENNYKTTPPVLDSDGSFFLYSRLTVDKSRWQEGNVFSCSVMHEALHYHYTQKSLSLSLGK
B2: anti-Abeta hIgG4 antibody, Fc modification Q95 (M252Y/T307Q/Q311A/N434Y) (antibody, part only; not given: anti-Abeta variable domains, not shown: another chain or arm of the molecule)
Fc: B1 Fc with Q82A
B3: anti-Abeta hIgG4 antibody, Fc modification T94 (M252Y/N286E/N434Y) (antibody, part only; not given: anti-Abeta variable domains, not shown: another chain or arm of the molecule)
Fc: B1 Fc with N57E, Q78T
B4: anti-Abeta hIgG4 antibody, Fc modification D1 (M252Y/N434Y) (antibody, part only; not given: Anti-Abeta variable domains, not shown: another chain or arm of the molecule)
Fc: B1 Fc with Q78T
B5: anti-BACE1 hIgG4 antibody, Fc modification T3 (M252Y/Q311I/N434Y) (antibody, part only; not given: Anti-BACE1 variable domains, not shown: another chain or arm of the molecule)
Fc: B1 Fc with Q78T, Q82I
B6: anti-BACE1 hIgG4 antibody, Fc modification Q7 (M252Y/Q311A/N434Y/Y436I) (antibody, part only; not given: anti-BACE1 variable domains, not shown: another chain or arm of the molecule)
Fc: B1 Fc with Q78T, Q82A, Y207I
B7: anti-Abeta hIgG4 antibody, Fc modification Q7 (M252Y/Q311A/N434Y/Y436I) (antibody, part only; not given: anti-Abeta variable domains, not shown: another chain or arm of the molecule)
Fc: B1 Fc with Q78T, Q82A, Y207I
B8: anti-Abeta hIgG4 antibody, Fc modification T3 (M252Y/Q311I/N434Y) (antibody, part only; not given: anti-Abeta variable domains, not shown: another chain or arm of the molecule)
Fc: B1 Fc with Q78T, Q82I
B9: anti-Abeta hIgG4 antibody, Fc modification Q4 (M252Y/Q311I/M428L/N434Y) (antibody, part only; not given: Anti-Abeta variable domains, not shown: another chain or arm of the molecule)
Fc: B1 Fc with Q78T, Q82I, M199L
B10: anti-BACE1 hIgG4 antibody, Fc modification Q6 (M252Y/M428L/N434Y/Y436I) (antibody, part only; not given: anti-BACE1 variable domains, not shown: another chain or arm of the molecule)
Fc: B1 Fc with Q78T, M199L, Y207I
B11: anti-BACE1 hIgG4 antibody, Fc modification Q95 (M252Y/T307Q/Q311A/N434Y) (antibody, part only; not given: Anti-BACE1 variable domains, not shown: another chain or arm of the molecule)
Fc: B1 Fc with Q82A
B12: anti-BACE1 hIgG4 antibody, Fc modification T94 (M252Y/N286E/N434Y) (antibody, part only; not given: Anti-BACE1 variable domains, not shown: another chain or arm of the molecule)
Fc: B1 Fc with N57E, Q78T
B13: anti-Abeta hIgG4 antibody, Fc modification Q6 (M252Y/M428L/N434Y/Y436I) (antibody, part only; not given: anti-Abeta variable domains, not shown: another chain or arm of the molecule)
Fc: B1 Fc with Q78T, M199L, Y207I

target: human FcRn complex (FCGRT and beta-2 microglobulin), recombinant, purified (human) (UniProt P55899); assay: SPR, protein L capture, pH 6, kinetic

| Kd | koff | kon | Binder |
| --- | --- | --- | --- |
| 10.5 nM | 0.00897 s⁻¹ | 856000 M⁻¹ s⁻¹ | B1 |

target: cyno FcRn (cynomolgus monkey) (UniProt Q8SPV9); assay: affinity for cyno FcRn at 25 C, pH 6.0
Sequence (Q8SPV9 24-297 limits assumed, chain 1 of 2): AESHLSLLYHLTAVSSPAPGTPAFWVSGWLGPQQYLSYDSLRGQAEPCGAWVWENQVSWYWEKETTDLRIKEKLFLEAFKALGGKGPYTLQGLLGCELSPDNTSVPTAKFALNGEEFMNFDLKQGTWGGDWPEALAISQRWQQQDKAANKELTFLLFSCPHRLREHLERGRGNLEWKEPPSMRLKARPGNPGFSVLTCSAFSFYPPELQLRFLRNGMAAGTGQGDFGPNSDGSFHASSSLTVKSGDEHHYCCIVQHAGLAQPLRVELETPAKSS
Sequence (Q8SPW0 21-119 limits assumed, chain 2 of 2, further chain): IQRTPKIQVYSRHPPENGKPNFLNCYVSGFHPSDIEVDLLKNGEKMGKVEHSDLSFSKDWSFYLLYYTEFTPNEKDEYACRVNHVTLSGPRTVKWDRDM

| Kd | Binder |
| --- | --- |
| 8.2 nM | B2 |
| 10.1 nM | B3 |
| 11.5 nM | B4 |

target: human FcRn complex (FCGRT and beta-2 microglobulin), recombinant, purified (human) (UniProt P55899); assay: SPR, anti-human Fab capture, pH 7.4, steady state

| Kd | Binder |
| --- | --- |
| 263 nM | B5 |
| 230 nM | B6 |
| 273 nM | B7 |
| 334 nM | B8 |
| 486 nM | B9 |
| 284 nM | B2 |
| 406 nM | B3 |
| 215 nM | B10 |
| 202 nM | B11 |
| 1020 nM | B4 |
| 305 nM | B12 |
| 285 nM | B13 |

target: human FcRn (FCGRT and beta-2 microglobulin) expressed on MDCK II cells (human) (UniProt P55899); assay: cell-based or functional assay

| Transcytosis Normalized to WT (normalized to WT) | Binder |
| --- | --- |
| 80 | B1 |

target: human FcRn complex (FCGRT and beta-2 microglobulin), recombinant, purified (human) (UniProt P55899); assay: SPR, protein L capture, pH 7.4, steady state

| Kd | Binder |
| --- | --- |
| 328 nM | B1 |

target: human FcRn complex (FCGRT and beta-2 microglobulin), recombinant, purified (human) (UniProt P55899); assay: SPR, anti-human Fab capture, pH 6, steady state

| Kd | Binder |
| --- | --- |
| 7.4 nM | B5 |
| 7.4 nM | B7 |
| 9.2 nM | B8 |
| 9.2 nM | B9 |
| 6.5 nM | B2 |
| 8.8 nM | B3 |
| 6.3 nM | B10 |
| 5.9 nM | B11 |
| 13.1 nM | B4 |
| 7.04 nM | B12 |
| 8 nM | B13 |

target: cyno FcRn (cynomolgus monkey) (UniProt Q8SPV9); assay: affinity for cyno FcRn at 25 C, pH 7.4

| Kd | Binder |
| --- | --- |
| 215 nM | B2 |
| 369 nM | B3 |
| 571 nM | B4 |
